Measurements taken from article PMC4015550, “Immunopurification of adenomatous polyposis coli (APC) proteins” (BMC Research Notes, 2013).

Biological target: the molecule itself
Experiment: not stated; data not shown; APC fragment of residues 1-61 said to form a dimer; no method or conditions told

B1: APC-NT antigen (APC residues 1–61 with an N-terminal FLAG-tag) (domain or fragment, human, UniProt P25054 1-61, looked up)
chain: MAAASYDQLLKQVEALKMENSNLRQELEDNSNHLTKLETEASNMKEVLKQLQGSIEDEAMA
notes: adenomatous polyposis coli (APC), human, amino acids 1-61, the N-terminal oligomerisation (coiled-coil) region; also called N-terminal fragment of APC (residues 1–61); source: E. coli (pET30a+), purified (anti-FLAG M2 Sepharose, MonoQ anion exchange, reversed-phase HPLC)
  stoichiometry N: 2
